In paper doi:10.1101/2021.10.02.462850 (bioRxiv, 2021):

Target: the molecule itself
Experiment: crystal structure

B1: RUN1^TIR-E100A (domain or fragment, grapevine, UniProt V9M398 23-198, looked up)
chain: RTITYDVFLSFRGEDTRFNFTDHLYSALGRRGIRTFRDDKLRRGEAIAPELLKAIEESRSSVIVFSENYARSRWCLDALVKIMECHKDKKDPGHAVFPIFYHVDPSHVRKQEGSFGEAFAGYGENLKDKIPRWRTALTEAANLSGWPLQDGYESNQIKEITDSIFRRLKCKRLDAG
- binding result: binds
